Ends that are not written are not given here. * marks the point of attachment. Crotonyl(E) = C/C=C/C(=O)*
Columns and labels:
[1] = target: FAM-labeled Taf2CT peptide (S. cerevisiae) (UniProt P23255); assay: MST; FAM-labeled Taf2CT peptide kept at 20 nM, Taf14ET varied; 20 mM Tris-HCl pH 7.5, 150 mM NaCl, 0–0.2 mM TCEP; Monolith NT.115; n = 3
[2] = test system: Taf14dET (Saccharomyces cerevisiae); assay: EMSA; settings: EMSA: 20-25 mM Tris-HCl pH 7.5, 100-150 mM NaCl, 0.2 mM EDTA (+20% glycerol for NCP), 4 °C 10 min, 0.25 pmol/lane; NMR: 50 mM Tris pH 6.6-7.5, 150 mM NaCl or …
[3] = test system: Taf14dYEATS (Saccharomyces cerevisiae); assay: EMSA; settings: EMSA: 20-25 mM Tris-HCl pH 7.5, 100-150 mM NaCl, 0.2 mM EDTA (+20% glycerol for NCP), 4 °C 10 min, 0.25 pmol/lane; NMR: 50 mM Tris pH 6.6-7.5, 150 mM NaCl or …
[4] = target: His-Taf14ET (S. cerevisiae) (UniProt P35189); assay: MST; His-tagged Taf14 protein labeled with RED-tris-NTA kept at 20 nM, unlabeled peptide added stepwise; 20 mM Tris-HCl pH 7.5, 150 mM NaCl, 0–0.2 mM TCEP; Monolith NT.115; n = 2 or 3
[5] = target: T1, Taf14_(YEATS) (YEATS domain of Taf14, aa 1–137) (S. cerevisiae, UniProt P35189 1-137, uniformly 15N-labeled); assay: NMR titration; 1H,15N HSQC of 0.1–0.3 mM uniformly 15N-labeled Taf14 protein, unlabeled peptide added; 298 K; 50 mM Tris-HCl pH 6.6–7.5, 150 mM NaCl, 0–5 mM DTT or 0.2 mM TCEP, or 1x PBS pH 6.6–7.5; settings: both partners purified
T1 construct: Taf14, S. cerevisiae, YEATS domain, aa 1–137; source: E. coli Rosetta-2 (DE3) pLysS, minimal media with 15NH4Cl, purified
T1 sequence (looked up): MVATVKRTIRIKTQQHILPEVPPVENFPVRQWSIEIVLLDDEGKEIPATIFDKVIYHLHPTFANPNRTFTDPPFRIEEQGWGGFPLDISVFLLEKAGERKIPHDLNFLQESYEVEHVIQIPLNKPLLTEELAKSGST

His-Taf14FL = target: T2, His-Taf14FL (S. cerevisiae, UniProt P35189 1-244); assay: MST; His-tagged Taf14 protein labeled with RED-tris-NTA kept at 20 nM, unlabeled peptide added stepwise; 20 mM Tris-HCl pH 7.5, 150 mM NaCl, 0–0.2 mM TCEP; Monolith NT.115; n = 2 or 3; settings: both partners purified
T2 construct: Taf14, S. cerevisiae, aa 1–244; Labelled on the His tag with the His-Tag Labeling Kit RED-tris-NTA (2nd Generation) for MST; source: E. coli Rosetta-2 (DE3) pLysS, purified (Ni-NTA, SEC)
T2 sequence (looked up): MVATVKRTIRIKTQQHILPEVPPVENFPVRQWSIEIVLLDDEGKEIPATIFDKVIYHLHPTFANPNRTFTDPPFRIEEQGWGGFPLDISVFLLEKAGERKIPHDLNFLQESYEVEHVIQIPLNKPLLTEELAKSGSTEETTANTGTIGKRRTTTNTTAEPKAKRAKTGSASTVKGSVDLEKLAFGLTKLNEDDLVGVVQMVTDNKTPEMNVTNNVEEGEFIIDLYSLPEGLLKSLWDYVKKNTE

His-Taf14_(YEATS) = target: T3, His-Taf14_(YEATS) (S. cerevisiae, UniProt P35189 1-137); assay: as above; settings: both partners purified
T3 construct: Taf14, S. cerevisiae, YEATS domain, aa 1–137; Labelled on the His tag with the His-Tag Labeling Kit RED-tris-NTA (2nd Generation) for MST; source: E. coli Rosetta-2 (DE3) pLysS, purified (Ni-NTA, SEC)
T3 sequence (looked up): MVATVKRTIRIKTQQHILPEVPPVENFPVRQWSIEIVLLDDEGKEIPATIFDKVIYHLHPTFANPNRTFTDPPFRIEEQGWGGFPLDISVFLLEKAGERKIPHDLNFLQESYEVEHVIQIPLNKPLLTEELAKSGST

Taf14FL = Taf14FL (Saccharomyces cerevisiae, UniProt P35189 1-244); assay: EMSA; EMSA: 20-25 mM Tris-HCl pH 7.5, 100-150 mM NaCl, 0.2 mM EDTA (+20% glycerol for NCP), 4 °C 10 min, 0.25 pmol/lane; NMR: 50 mM Tris pH 6.6-7.5, 150 mM NaCl or 1x PBS, 298 K; settings: protein: recombinant; 15N-labelled for NMR; 5' overhang 1 nt (extra T on strand 2 as printed)
Taf14FL;Taf2CT = Taf14FL;Taf2CT (Saccharomyces cerevisiae;Saccharomyces …, UniProt P35189;P23255 1-244;1392-1402, |); assay: EMSA; Taf14:Taf2CT 1:10; augmented vs Taf14FL alone; EMSA: 20-25 mM Tris-HCl pH 7.5, 100-150 mM NaCl, 0.2 mM EDTA (+20% glycerol for NCP), 4 °C 10 min, 0.25 pmol/lane; NMR: 50 mM Tris pH 6.6-7.5, 150 mM NaCl or 1x PBS, 298 K; settings: 15N-labelled for NMR;; 5' overhang 1 nt (extra T on strand 2 as printed)
[6] = target: T4, Taf14FL (full-length Taf14, aa 1–244) (S. cerevisiae, UniProt P35189 1-244); assay: NMR titration; 1H,15N HSQC of 0.1–0.3 mM uniformly 15N-labeled Taf14 protein, unlabeled peptide added; 298 K; 50 mM Tris-HCl pH 6.6–7.5, 150 mM NaCl, 0–5 mM DTT or 0.2 mM TCEP, or 1x PBS pH 6.6–7.5; settings: both partners purified
T4 construct: Taf14 (transcription initiation factor subunit 14), S. cerevisiae, aa 1–244, a 244-residue protein; In the EMSAs (functional rows) GST-Taf14 or Taf14 proteins were used; source: E. coli Rosetta-2 (DE3) pLysS, purified (SEC for cross-linking; 15N-labeled for NMR)
T4 sequence (looked up): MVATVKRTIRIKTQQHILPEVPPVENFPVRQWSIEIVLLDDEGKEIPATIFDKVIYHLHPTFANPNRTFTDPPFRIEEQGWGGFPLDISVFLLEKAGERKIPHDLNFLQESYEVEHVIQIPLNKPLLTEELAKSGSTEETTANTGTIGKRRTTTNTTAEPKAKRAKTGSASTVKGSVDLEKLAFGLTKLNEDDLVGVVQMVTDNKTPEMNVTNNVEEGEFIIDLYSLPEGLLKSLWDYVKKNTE

FAM-labeled Taf2CT peptide (S. cerevisiae), sequence (P23255 whole entry, looked up, tested part not stated): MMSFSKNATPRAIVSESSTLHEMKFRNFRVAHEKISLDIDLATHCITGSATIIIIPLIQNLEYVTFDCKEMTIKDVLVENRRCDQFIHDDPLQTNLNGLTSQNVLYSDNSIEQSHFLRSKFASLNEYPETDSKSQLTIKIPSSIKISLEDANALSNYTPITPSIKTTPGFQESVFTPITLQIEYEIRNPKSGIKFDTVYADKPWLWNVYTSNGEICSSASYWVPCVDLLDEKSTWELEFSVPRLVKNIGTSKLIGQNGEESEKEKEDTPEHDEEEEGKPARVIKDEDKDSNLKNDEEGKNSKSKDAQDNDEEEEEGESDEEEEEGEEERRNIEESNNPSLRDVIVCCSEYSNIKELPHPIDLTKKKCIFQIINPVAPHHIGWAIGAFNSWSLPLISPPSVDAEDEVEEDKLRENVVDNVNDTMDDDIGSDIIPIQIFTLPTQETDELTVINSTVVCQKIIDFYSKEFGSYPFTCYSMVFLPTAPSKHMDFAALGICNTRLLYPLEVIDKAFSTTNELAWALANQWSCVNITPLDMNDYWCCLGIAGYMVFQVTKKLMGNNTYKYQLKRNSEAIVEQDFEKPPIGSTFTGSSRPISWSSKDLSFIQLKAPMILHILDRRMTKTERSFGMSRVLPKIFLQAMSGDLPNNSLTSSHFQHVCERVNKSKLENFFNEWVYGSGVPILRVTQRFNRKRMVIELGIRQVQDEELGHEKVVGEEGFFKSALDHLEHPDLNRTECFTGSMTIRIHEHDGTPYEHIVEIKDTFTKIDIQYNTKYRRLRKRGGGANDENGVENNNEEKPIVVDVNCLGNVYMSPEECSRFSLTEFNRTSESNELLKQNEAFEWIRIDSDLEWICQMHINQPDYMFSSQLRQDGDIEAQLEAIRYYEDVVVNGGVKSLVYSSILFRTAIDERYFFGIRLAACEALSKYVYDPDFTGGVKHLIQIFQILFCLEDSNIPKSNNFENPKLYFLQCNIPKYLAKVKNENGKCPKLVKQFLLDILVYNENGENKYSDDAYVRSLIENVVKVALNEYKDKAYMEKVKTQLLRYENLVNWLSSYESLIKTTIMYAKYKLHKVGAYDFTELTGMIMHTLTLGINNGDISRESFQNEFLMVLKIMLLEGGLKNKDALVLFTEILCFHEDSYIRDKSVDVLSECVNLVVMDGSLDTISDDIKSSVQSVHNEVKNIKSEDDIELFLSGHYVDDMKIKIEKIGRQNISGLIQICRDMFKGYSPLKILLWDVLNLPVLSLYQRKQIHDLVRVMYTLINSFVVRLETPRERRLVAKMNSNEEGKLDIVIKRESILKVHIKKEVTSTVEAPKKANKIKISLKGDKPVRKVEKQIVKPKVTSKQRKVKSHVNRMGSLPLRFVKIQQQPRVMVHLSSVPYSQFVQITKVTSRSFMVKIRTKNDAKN

Taf14ET (ET domain of Taf14, aa 168–243) (from UniProt P35189 168-243) (domain or fragment)
Kd [1]: 1.6 µM

601 Widom DNA 147 bp
binding signal (fold tighter than Taf14FL) [2]: > 6 | binding signal (fold tighter than Taf14FL) [3]: > 6

Taf14_(Linker) peptide (aa 145–169 of Taf14) (from UniProt P35189 145-169)
Kd [4]: 640 µM

B1: H3K9cr_(5-13) peptide (residues 5–13 of H3) (peptide, UniProt P61830 6-14, looked up)
peptide: QTARK(Crotonyl(E))STGG
notes: also called H3K9cr peptide; source: synthetic peptide (Synpeptide)
binding result [5]: binds

B2: Taf2CT peptide (aa 1392–1402 of Taf2) (peptide, UniProt P23255 1392-1402, looked up)
peptide: SRSFMVKIRTK
notes: Taf2, subunit of yeast TFIID, C-terminal hxhKh motif-containing tail, aa 1392–1402; also called Taf2 peptide; C-terminal tail of Taf2; source: synthetic peptide (Synpeptide)
Kd (His-Taf14FL): 0.7 µM | Kd (His-Taf14_(YEATS)): 6 µM

B3: 37 bp non-specific dsDNA (dsDNA)
DNA 1: CGTGTCAGATATATACATCCGATATCAGATCTCGTCA
DNA 2: TTGACGAGATCTGATATCGGATGTATATATCTGACACG
binding result (Taf14FL): binds | binding result (Taf14FL;Taf2CT): binds

ARTKQTARKSTGGKAPRKQ (peptide, UniProt P61830 2-20, looked up, crotonyl-lysine at 9, the NMR methods list only H3K9cr_(5-13)) [H3K9cr_(1-19) peptide]
binding result [6]: binds

Source: PMC9177701, “Taf2 mediates DNA binding of Taf14” (Nature Communications, 2022)
